In a protein production outcome set (Wang et al. 2014) one finds protein production data, which are given here for 22 sequences.

A short description of the data set: label from the status in PepcDB records.
“GSAEILVPEVYHGPGKRGTGFYNADQKINRDITIEFIKKMGIRNVLDGFGGTGIRGIRISKETDSAVTISEVSPDSYRLIRDNVERNGSQASVINDSFECVLQHGAYEYVDVDPYGSPVPYLDAALMGVKRNGFLGVTATDQSALTGSVPHKTRIRYDALIKNDTFRHEMGIRLLIGYMAKRAASLGRFIDPLISIWHGHYYRVFVRVRKGFEGAGRMMQNLGYVNKHNLLSGIYQDMDEGPVWKGNLQDNAVAEAVLASAGHKAFNPEENRLLFCDLTDIARARHTSLPDIESVIDALSSSGHAASRTMFSPTGIKTDASCDLVESLMMDTLHRRS”: the protein production entry is given as “failed”.
The result for “MSNGGSFTVEKLSLYGNPNIGVYLTASDSYVLAPDDIGADDVRTISEVLGVAMERVVRLRVLGMRLVGVLTTGNSRGILLPEGVDREVELVRKALEGVEVGIVPTRSNALGNVIVCNDRACLASPGLEKEALKTVSDTLGVEVVEGSVAGVYTVGSAIVVTNRGGLAHPDASEEELKFLSDVFKVPFEAGTINFGVEFVRTGLVANSYGALVGEDTTGPEIARIQVALGGGVK” reads “failed”; that for “MIAVISMSGHVWSQQVPLWSIIIRTIHLIGLTLWLGSLVYLICYAIKVKINQLTSVRRMLLKVNIIAVFMLVFTGILMAIDETNTLTLWNNVSAWSIYLVIKIAGIITMMLLGFYQTMRALRQRQQVHRFALMTELLIGMILIFAGIMMSK”, “failed”.
As to “MAQPDREARPQFSHPTRQILTMLIVIGLSGFGVFVAMPRVLPVFQANPYLNGFILLVFIIGVLACFWQVVQLIGSVRWIEDFAAGQEREDTTPPSMLAPLASLLRSRAARMQISSSSTRSILDSVAERIEEEREITRYITNVLIYLGLLGTFFGLATTIPAVVDTIRSLNPQEGEEGLAVFNRLMTGLEAQLGGMGTAFGSSLLGLAGSLIVGLLELFTGHGQNRFYRELEEWLSTITRVGFSSGEEGHSESGAIAGVIDTMVEQMDALHAMFAASEEGRAEISGKLGALVETIAEMNQRQAETEDVTAALDRVAAGQETLIDFLREQGAHDGIDAESRMRLRSIDVQMLRILEEISAGRQESMAELRKDIELLAKALSVPRRPLRGVTRDEG”, the protein production result is recorded as “failed”.
As to “MRIPHHLSRSPTGRWSFVQRVPVDLQTVMGCRLIKRTLQTKDLAQAHVRAVVLGAGYARLFAQLTDQRVDKLSKTDADLLIARLTSAENLQDLTLNRTRQPDGTVTEQWQIDSPKDLKLYRQLMELEAMAGAALQARAHPVAVPTMFGSTHAGPSRQSSAPAIETMTLGKARDAFLATLKGSTLPKTYTIKKTAIEALVSFLGPTMKVHAITRSDLARWYQDMREKGASTPTLTNKQSYIGGRGGFFEWAMASGHYPKGDNPASGHVSYSQREKRARKKLGFKAYDRAQIQALFAPEALAKLSESARWASFLGLYTGARASEVGQLLVKDVFEEDGIPCIRISDEGEHQKVKTEVSLRTVPLHPELLKMGFLEWVGGKRKVGETRLFPAAKATAVNGQGNWITKAFSRHLAEVGKNWEPAKRGFHSLRKTLIQELQGAGVVSELRAQIVGHELDDEHHSTYGRDFTVVEKLRGLGPHSPGISRLSFFQ”, the protein production entry is “failed”.
The same measure for “MNTSCTSYHSMALSESQRDILGMIATNHQLHDILTAICLMIDAQDPGTLCSILLTDAQGKHLLKGAAPGLPPAYSDAIHGLPIGPQEGTCGTAAFRRELVVTADIARDPSWERFRSLALGYNLRSCWSLPLLSHEGSVLGTFALYQDQAIAPSEVQIHRLTCAAQLAAIAIRH”: “failed”; for “MDRLSYAIGDKAVLNNIRVQFQPGSVTALLGPNGAGKSTLLKALCQEIPSAQGSIKLGHCQLVDWPRAELAKSLAVLPQHASLTFPFTVDEVVAMGLYPLTLSQKEGQQLVTKWLAEVGVLHLARRSYPTLSGGEKQRVQLARVLTQLSQSPFPPILLLDEPTSALDLAQQHKVLALAKNLAHKHAYTVIVVLHDLNQAARYSDRVIVLKQGEIVSEGTPNDALSIDIIRQVWDYEPEFIPAPQGDYPLIF”: “failed”.
The same measure for “MSSKMVKSSEIVGKLNLRAHQEGGFFAETFRDSSVFLSTSQLPPTFKVDRAVSTSIYFLLPSGSVSRLHRIPMAETWHFYLGEPLTVVELYDDGKLKFTCLGPDLFEGDQKPQYTVPPNVWFGSFPTKDVHFSQDGALLKAEARDSENHFSLVGCTCAPAFQFEDFELAKRSDLLSRFPQHESLITMLSYPE”: “failed”; for “GNIEAALFGLIALYAQTKVIDSIIYGGDAGSMATIVTGNPDGIAAKVIYELDRTATVLPAKGAYSRKDTSVLLCTVRKSQFVKLKRIVYEEDPDAFVMVTETSEVLGLGFRAFKDSL”: “failed”.
The result for “MREGLRVLNSCNKVRGIFTLTQKTIKTFCFILAILVLIIFAVVFHNHSLEIIDYIDDLGWLAPVLFLITYCLATLLLLPTMVLTLAGGAVFGPVFGTLLNLLGATSGAALAFLITRHLVYDWFSTKKGEKLNKLIAGVDEKGWVFVAFLRLFPIVPFNLVNYGLGVTGISFRLYLLTTFIFLIPAEIIYTYFGYVGMDALTRPGHLYRNGGIFLTGLAIFFLLVIRIMKKR” reads “failed”; that for “MEQQKDYIELYENEELIEIREARMDDLDTIAKFNYNLAKETEGKELDMDVLTKGVKALLLDERKGKYHVYTVFDKVVAQIMYTYEWSDWRNGNFLWIQSVYVDKEYRRKGIFNYLFNYIKNICDKDENIVGMRLYVEKENINAKATYESLNMYECDYNMYEYEVIHS”, “failed”.
“MSLSAPRITRVETAAIRAVGPSVLVRVWAGDEHGLGECYPSAPAAGIHHIVMNMEEQLLGEDPRDVERLYEKMRRWNIFTGGQAGAVITALSGIETALWDLAGKLQGVPVYRLLGGAFRRRVRLYADCNAGTVDAAAHHIEGGLFVEGSNEEYIAVAREAVERGFDAIKLDVDDITGPLHRDFWNGAISPREHEAMVARVAAVREAVGPEVEVAIDMHGRFDIPSSIRFARAMEPFGLLWLEEPTPPENLDALAEVRRSTSTPICAGENVYTRFDFRELFAKRAVDYVMPDVAKCGGLAEAKRIANLAELDYIPFAPHNVSSPVGTVAAAHVCAAVSNFAVLEWHAIDMPHWEDFVRYPGGPVIREGHIELTEEPGLGLELDEEAAFEHRHEKGGVPFFGRTEGHHHHHH”: the protein production entry is “not failed”.
On to “MTQQTDLQSKTNIDPLAMNDSFLAAADALAVDPMFGIPANVREVIARRGNATRLVILGTKGFGAHLMNVRHERPCEVIAAVDDFRYHSGELYYGLPIISTDRFTELATHDRDLVALNTCRYDGPKRFFDQICRTHGIPHLNFEQAVRAFGLQGNVDYRVDDWGADIVRNIPAFQTLAQRLADDYSVQTLYAVLNFHLTCEPEYYHEVERPYSTLYFRSGLLRFSDSEKMVDCGASIGESLAGLIGVTKGKFERVWMIEPDRINLQTLQNVLRRYTDTNFASRITVHGCGAGENTIRVPFNHEGGHGGFVKPADADHEPADLIDVRPIDDIIDDAPTFIKMDIEGSELSALKGARRAISEHKPKLAISAYHRSTDLLDLTNYILSIRPDYQIGLRHHTPDRWDTCLYFY”, for which the protein production entry was “not failed”.
Take “EEKVVAEQQADGTWLMDGWISIRKASNLLEHDLVDEAERYSTLGGYLLWQFGYIPAAGEQITVDGLIFEIVSVNKHNIGKVRVHRTQ”: the protein production entry is “not failed”.
The same measure for “MAKNDKINFSTPSGFPEFLPSEKRLELYLLDTIRRVYESYGFTPIETPAVERLEVLQAKGNQGDNIIYGLEPILPPNRQAEKDKSGDTGSEARALKFDQTVPLAAYIARHLNDLTFPFARYQMDVVFRGERAKDGRFRQFRQCDIDVVGREKLSLLYDAQMPAIITEIFEAVNIGDFVIRINNRKVLTGFFQSLNISETQIKSCISIIDNLEKIGEAKVKLELEKEGINPEQTQKIIDFVKIDGSVDDVLDKLKHLSQTLPESEQFNLGVSELETVITGVRNLGVPDKRFCIDLAIARGLNYYTGTVYETTLIGHEALGSICSGGRYEELVGTFIGEKMPGVGISIGLTRLISRLLKAGILNTLPPTPAQVVVVNMQDELMPTYLKVSQQLRQAGLNVITNFEKRQLGKQFQAADKQGIRFCVIIGADEAAAQKSSLKDLQSGEQVEVALADLAEEIKRRLT”: “not failed”; for “LSPPRGLVAVRTPRGVLLHWDPPELVPKRLDGYVLEGRQGSQGWEVLDPAVAGTETELLVPGLIKDVLYEFRLVAFAGSFVSDPSNTANVSTSGL”: “not failed”.
The same measure for “MTNPEATDKEGKNYALFIGDTVLVGEQSPASVMTPSKKKIKNVGIFIKDDSDEEDVDDKKTAKEDQGTEILGRSKRNAVLESKLRNEINTEEKRKEHQRELAQQLNERAKDRLARQGNSKEVEKVRKNTVSYKSISQMPREPEVKELKLYVDKKYETV”: “failed”; for “PSARDILQQGLDRLGSPEDLASRIDSTLLSPRATEEDVRNLVREASDYGFRCAVLTPVYTVKISGLAEKLGVKLCSVIGFPLGQAPLEVKLVEAQTVLEAGATELDVVPHLSLGPEAVYREVSGIVKLAKSYGAVVKVILEAPLWDDKTLSLLVDSSRRAGADIVKTSTGVYTKGGDPVTVFRLASLAKPLGMGVKASGGIRSGIDAVLAVGAGADIIGTSSAVKVLESFKSLV”: “not failed”; for “MKINMHILGLLVVVGLFSLQSCDDESYDIEGSNQNYVYINVNRWTSTEYPQNTFVYEVLRTPIGSSLESGPEIVKVGVRSTKVASKDITVTLDIDNCASIGEFSSFPDGVKVTLDKKELVIPAGSMLSSDSVTIEIEDGKWSEFVNTSYLLPLKVTSVSNAALSETHSSAYLAVSTSFTNCVPGATSVEGTLISDRSAWTATNNGVDVGTTLFDGNTRTYPSQDASSTVIVNLNGVYQNITGIRLQYYSRNYSLSSAAVYTSETGGEDYEYQGNVTFSRATPQYIRFYGAVSARYVKLELLPYSSGYGIVLSEFDMYQNE”: “failed”.
The same measure for “MLTVEPSEIQLTPGPILSLYLDLAGHLNWHIRSNLYLRGAEPRLDQKDPAAAAILELSLRLGSAPGGSVSCCWVTVSPGRMSVIDHVRDMAAAGLHSNVRLLSSLLLTMSNNNPELFSPSQKYQLLVYHADSLFHDKEYRNAVSKYTMALQQKKALSKTSKCLPSEIEVKYKMAECYTMLKLDKDAIAILDGIPSRQRTPKINMMLANLYKKAGQERPSVTSYKEVLRQCPLALDAILGLLSLSVKGAEVASMTMNVIQTVPNLDWLSVWIKAYAFVHTGDNSRAINTICSLEKKSLLRDNVDLLGSLADLYFRAGDNKNSVLKFEQAQMLDPYLIKGMDVYGYLLAREGRLEDVENLGCRLFNISDQHAEPWVVSGCHSFYSKRYSRALYLGAKAIQLNSNSVQALLLKGAALRNMGRVQEAIIHFREAIRLAPCRLDCYEGLIECYLASNSIREAMVMANNVYKTLGANAQTLTLLATVCLEDPVTQEKAKTLLDKALAQRPDYVKAVVKKAELLSREQKYEDGIALLRNALANQSDCVLHRILGDFLVSVNEYQEAMDQYSIALSLDPNDQKSLEGMQKMEKEGSPTDATQEDDVDDMEGSGEEGDLEGSDSEAAQWADQEQWFGMQ”: “failed”.
Regarding “MSLINARLIAFEDQWVPALNAPLKQAILADSQDAQLAAAMTYSVLAGGKRLRPLLTVATMQSLGVTFVPERHWRPVMALELLHTYSLIHDDLPAMDNDALRRGEPTNHVKFGAGMATLAGDGLLTLAFQWLTATDLPATMQAALVQALATAAGPSGMVAGQAKDIQSEHVNLPLSQLRVLHKEKTGALLHYAVQAGLILGQAPEAQWPAYLQFADAFGLAFQIYDDILDVVSSPAEMGKATQKDADEAKNTYPGKLGLIGANQALIDTIHSGQAALQGLPTSTQRDDLAAFFSYFDTERVNEGHHHHHH”, the protein production result is reported as “not failed”.
Take “MDLHESESRTHVLSTDGDDGYIDMEVNLSSSSSSSTSSSSFFSFPVTSSPPQSREFEFQMCSSAVASGESTTSPADELFYKGQLLPLHLPPRLKMVQKLLLASSSSTAATETPISPRAAADVLSPRRFSSCEIGQDENCFFEISTELKRFIESNENHLGNSWSKKIKHSSITQKLKASRAYIKALFSKQACSDSSEINPRFKIEPSKVSRKKNPFVNSENPLLIHRRSFSGVIQRHSQAKCSTSSSSSSSASSLSSSFSFGSNGSLDLQTLMRSSNASDNSIEGAIEHCKQSFTTRKSNVTESELCSSRTSVSTCGDLDKD”: the protein production entry was “failed”.
